Measurements published in patent US7851182 (CONARIS RESEARCH INSTITUTE, dated 2010).

B1: sgp130(D1-D3)S0-Fc (Fc fusion)
chain: ELLDPCGYISPESPVVQLHSNFTAVCVLKEKCMDYFHVNANYIVWKTNHFTIPKEQYTIINRTASSVTFTDIASLNIQLTCNILTFGQLEQNVYGITIISGLPPEKPKNLSCIVNEGKKMRCEWDGGRETHLETNFTLKSEWATHKFADCKAKRDTPTSCTVDYSTVYFVNIEVWVEAENALGKVTSDHINFDPVYKVKPNPPHNLSVINSEELSSILKLTWTNPSIKSVIILKYNIQYRTKDASTWSQIPPEDTASTRSSFTVQDLKPFTEYVFRIRCMKEDGKGYWSDWSEEASGITYED
notes: No spacer between D3 and Fc; V5 and 6xHis tags are not present; also called sgp130(D1-D3)Fc; sgp130(D1-3)Fc; not shown: IgG-Fc part; its beginning is printed as 'SCD'; detected with an anti-human IgG (Fc) antibody
B2: sgp130(D1-D3)S1-Fc (Fc fusion)
chain: ELLDPCGYISPESPVVQLHSNFTAVCVLKEKCMDYFHVNANYIVWKTNHFTIPKEQYTIINRTASSVTFTDIASLNIQLTCNILTFGQLEQNVYGITIISGLPPEKPKNLSCIVNEGKKMRCEWDGGRETHLETNFTLKSEWATHKFADCKAKRDTPTSCTVDYSTVYFVNIEVWVEAENALGKVTSDHINFDPVYKVKPNPPHNLSVINSEELSSILKLTWTNPSIKSVIILKYNIQYRTKDASTWSQIPPEDTASTRSSFTVQDLKPFTEYVFRIRCMKEDGKGYWSDWSEEASGITYEDGGGGS
notes: D4-D6 replaced by one GGGGS repeat; No tags; not shown: IgG-Fc part; its beginning is printed as 'SCD'; detected with an anti-human IgG (Fc) antibody
B3: sgp130(D1-D3)S3-Fc (Fc fusion)
chain: ELLDPCGYISPESPVVQLHSNFTAVCVLKEKCMDYFHVNANYIVWKTNHFTIPKEQYTIINRTASSVTFTDIASLNIQLTCNILTFGQLEQNVYGITIISGLPPEKPKNLSCIVNEGKKMRCEWDGGRETHLETNFTLKSEWATHKFADCKAKRDTPTSCTVDYSTVYFVNIEVWVEAENALGKVTSDHINFDPVYKVKPNPPHNLSVINSEELSSILKLTWTNPSIKSVIILKYNIQYRTKDASTWSQIPPEDTASTRSSFTVQDLKPFTEYVFRIRCMKEDGKGYWSDWSEEASGITYEDGGGGSGGGGSGGGGS
notes: D4-D6 replaced by three GGGGS repeats; No tags; not shown: IgG-Fc part; its beginning is printed as 'SCD'; detected with an anti-human IgG (Fc) antibody
B4: sgp130(D1-D3)S2-Fc (Fc fusion)
chain: ELLDPCGYISPESPVVQLHSNFTAVCVLKEKCMDYFHVNANYIVWKTNHFTIPKEQYTIINRTASSVTFTDIASLNIQLTCNILTFGQLEQNVYGITIISGLPPEKPKNLSCIVNEGKKMRCEWDGGRETHLETNFTLKSEWATHKFADCKAKRDTPTSCTVDYSTVYFVNIEVWVEAENALGKVTSDHINFDPVYKVKPNPPHNLSVINSEELSSILKLTWTNPSIKSVIILKYNIQYRTKDASTWSQIPPEDTASTRSSFTVQDLKPFTEYVFRIRCMKEDGKGYWSDWSEEASGITYEDGGGGSGGGGS
notes: D4-D6 replaced by two GGGGS repeats; No tags; not shown: IgG-Fc part; its beginning is printed as 'SCD'; detected with an anti-human IgG (Fc) antibody

target: T1, IL-6/soluble IL-6 receptor complex (human, UniProt P05231 30-212; P08887 20-358, limits assumed); experiment: ELISA, coated Fc fusion, IL-6 + sIL-6R titrated, anti-sIL-6R detection
T1 construct: also called IL-6/sIL-6R complex; IL-6/sIL-6R
Text: Comparison of the IL-6/sIL-6R Complex Binding Properties of sgp130Fc and sgp130(D1-D3)S_n-Fc (A) Material The 96-well Microlon microtiter plates were purchased from Greiner Bio-One (Frickenhausen, Germany). Recombinant human IL-6 and soluble IL-6 receptor (sIL-6R) were obtained from BioSource (Solingen, Germany) and R&D Systems (Wiesbaden, Germany), respectively. The primary anti-sIL-6R antibody (clone M91, mouse IgG1) was from Beckman Coulter (Krefeld, Germany). The secondary anti-mouse IgG HRP-conjugated antibody from GE Healthcare (Freiburg, Germany) was the same as in the Western blotting experiments (see Example 1, A and C). Ready-to-use Tetramethylbenzidin (TMB) HRP substrate was purchased from Sigma-Aldrich (Taufkirchen, Germany).
For quality control and comparison between different lots of sgp130Fc variants, a standard ELISA was designed. All steps except for coating were carried out at room temperature, all washing steps were performed three times with a volume of 250 µl, and all conditions were measured in triplicate. A 96 well microtiter plate was coated with 100 ng/Well of original sgp130Fc as an internal standard and an equimolar quantity of sgp130(D1-D3)S_n-Fc in 100 µl PBS at 4° C. overnight. Thus, sgp130Fc and its variants served as capture reagent, while the bound sIL-6R was detected (see below). After washing with 0.05% Tween-20/PBS, wells were blocked with 200 µl/Well 3% BSA/PBS for 2 h. Subsequently, the blocking solution was removed, and wells were incubated for 1 h with a 1:2 dilution series (100 µl/Well) of recombinant human IL-6 (3.2 µg/ml to 50 ng/ml) and sIL-6R (1.6 µg/ml to 25 ng/ml) in 3% BSA/PBS. After washing with 0.05% Tween-20/PBS, wells were incubated with the primary anti-sIL-6R antibody diluted 1:2,000 in 3% BSA/PBS (100 µl/Well) for 1 h. Another series of three washing steps with 0.05% Tween-20/PBS was followed by a 1-h incubation with the secondary anti-mouse IgG HRP-conjugated antibody at 1:5,000 (100 µl/Well). After washing with 0.05% Tween-20/PBS and subsequently with dH_2O, plates were incubated with 100 µl/Well TMB substrate for about 5 min (depending on the intensity of the developing blue colour). The substrate reaction was stopped by adding 100 µl/Well 0.5 M sulfuric acid to the wells. Finally, the $A450$ was measured in a microplate reader.

Binding result, binds:
B1
B2
B3
B4
